{"source": "paper PMC6797613", "about": "“Crystal Structure Of Photorespiratory Alanine:Glyoxylate Aminotransferase 1 (AGT1) From Arabidopsis thaliana” (Frontiers in Plant Science, 2019)", "proteins": {"B1": {"name": "alanine:glyoxylate aminotransferase 1 (AGT1) from Arabidopsis thaliana (enzyme, UniProt Q56YA5 1-401, looked up)", "chain": "MDYMYGPGRHHLFVPGPVNIPEPVIRAMNRNNEDYRSPAIPALTKTLLEDVKKIFKTTSGTPFLFPTTGTGAWESALTNTLSPGDRIVSFLIGQFSLLWIDQQKRLNFNVDVVESDWGQGANLQVLASKLSQDENHTIKAICIVHNETATGVTNDISAVRTLLDHYKHPALLLVDGVSSICALDFRMDEWGVDVALTGSQKALSLPTGLGIVCASPKALEATKTSKSLKVFFDWNDYLKFYKLGTYWPYTPSIQLLYGLRAALDLIFEEGLENIIARHARLGKATRLAVEAWGLKNCTQKEEWISNTVTAVMVPPHIDGSEIVRRAWQRYNLSLGLGLNKVAGKVFRIGHLGNVNELQLLGCLAGVEMILKDVGYPVVMGSGVAAASTYLQHHIPLIPSRI", "notes": "alanine:glyoxylate aminotransferase 1 (AGT1), Arabidopsis thaliana, AGI At2G13360, full length (residues 2/3-401 seen in the crystal); Untagged recombinant protein from a pET28a-derived plasmid (construct as in Liepman and Olsen, 2001); Catalytic dimer; an apparent tetramer (dimer of dimers) is seen in the crystal only; also called Arabidopsis AGT1; serine:glyoxylate aminotransferase; source: E. …"}}, "target": "the molecule itself", "assay": "crystal structure; crystals grown by vapor diffusion from 4.1-4.2 M sodium formate, protein 11 mg/ml in 0.2 mM PLP, 10% glycerol, 100 mM Tris-HCl pH 8.5, room temperature; without or with 20 mM L-serine; data collected at 25°C; dimer by crystallographic dyad, tetramer by noncrystallographic two-fold axis"}
{"protein": "B1", "values": [{"measurement": "stoichiometry N", "value": 2}]}
